Test results published in the supplement of paper PMC10126150.
± gives the standard deviation of the averaged measurements.

tested on: ATP; test: switch fluorescence ratio, 500 uM ATP over buffer (Cy3 cluster intensity, sum of 5 cycles each) (fold (ratio)); higher = stronger signal-on switching upon ATP binding; sequences stand for … in TCGTCGGCAGCGTCAGATGTGTATAAGAGACAGTTTTTTTTTTTTTTTTTTTTTTTTT…TC; conditions: aptamer strand: ATP DNA aptamer (quencher-CACCTGGGGGAGTATTGCGGAGGAAGG + anchor), 100 nM annealed; ATP concentration: 500 uM
Procedure, shortened: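 After annealing to 100 nM quencher-labelled ATP aptamer, Cy3-labelled switching-strand clusters on a modified Illumina MiSeq flow-cell were imaged in selection buffer. A second image followed after 15 min with 500 uM ATP at 22 °C, and five such buffer/ATP cycles were done, each separated by NaOH stripping and re-annealing. The fluorescence ratio, averaged per switch-domain sequence, is summed target-cycle over summed buffer-cycle Cy3 intensity per cluster, with clusters outside 100-1000 RFU excluded.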
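Further: ATP exposure 15 min at 22 °C before imaging.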

Compared with GTGTTCTAGT, TTAAAAAAAG is higher in switch fluorescence ratio: 0.955 ± 0.012 for the first, 1.01 ± 0.019 for the second.

Compared with GTGTGTTCGC, AATGGGAGGG is higher in switch fluorescence ratio: 0.9546 ± 0.0069 for the first, 1 ± 0.032 for the second.

Going from AATATCAGGA to TTTTGAGGTT, the switch fluorescence ratio falls from 1.026 ± 0.0083 to 0.983 ± 0.034.

GAATTAGCTT and AGCTTTGTC are within error of each other in switch fluorescence ratio: 0.983 ± 0.023 for the first, 0.989 ± 0.043 for the second.

Going from CGAGCGGCTA to ACTACCGGCG, the switch fluorescence ratio rises from 1.016 ± 0.0013 to 1.09 ± 0.022.

Compared with GAAACAGACA, GTGTCGAAGG is lower in switch fluorescence ratio: 1.08 ± 0.035 for the first, 0.976 ± 0.051 for the second.

GATATGTGGG and ACAAGGCCTT are within error of each other in switch fluorescence ratio: 0.986 ± 0.031 for the first, 0.993 ± 0.031 for the second.

Going from ACTTGGTCGT to AGGAGTAGTC, the switch fluorescence ratio falls from 1.04 ± 0.012 to 0.996 ± 0.021.

TTTAAGAGGG and GTTGTGTTAA are within error of each other in switch fluorescence ratio: 0.978 ± 0.038 for the first, 0.997 ± 0.014 for the second.

TATTGGTCTA and TCGAATAGAT are within error of each other in switch fluorescence ratio: 1.04 ± 0.087 for the first, 0.958 ± 0.04 for the second.

AGAAGGGCTT and GCGGATGGCA are the same in switch fluorescence ratio: 1 ± 0.026 for the first, 1 ± 0.038 for the second.

First: TGGGGATGTA
Second: TGAGTATATA
The switch fluorescence ratio of the first is lower: 0.976 ± 0.014 for the first, 1.02 ± 0.014 for the second.

TTAGGTGGG and GAGAGCGGGG are within error of each other in switch fluorescence ratio: 0.989 ± 0.024 for the first, 0.968 ± 0.033 for the second.

AGGGGCCATT and ATGAATACAA are the same in switch fluorescence ratio: 1.009 ± 0.0098 for the first, 1.01 ± 0.014 for the second.

GATGATAGCG and GCTTTTTGC are within error of each other in switch fluorescence ratio: 0.999 ± 0.025 for the first, 0.951 ± 0.065 for the second.

Going from TTCGTTGGAC to AGACAGGGCC, the switch fluorescence ratio falls from 1.01 ± 0.012 to 0.988 ± 0.01.

Going from TTGGTTGAAG to TTTTTAAACT, the switch fluorescence ratio falls from 1.02 ± 0.013 to 0.9921 ± 0.0076.

GAAGGTTAGG and ATGTGAATTG are within error of each other in switch fluorescence ratio: 0.9866 ± 0.0081 for the first, 1.01 ± 0.019 for the second.

First: GGTTCACGGC
Second: TGGGGATAGT
The switch fluorescence ratio of the first is higher: 1.03 ± 0.015 for the first, 0.968 ± 0.018 for the second.

GCAGAGGAAC and TAAGGGGGGT are within error of each other in switch fluorescence ratio: 1.03 ± 0.012 for the first, 1.02 ± 0.034 for the second.

AGGCATTATA and AAATAAAATT are within error of each other in switch fluorescence ratio: 1.01 ± 0.013 for the first, 0.982 ± 0.03 for the second.

CCCTCTCGGT and GGGGTATCTT are the same in switch fluorescence ratio: 1.037 ± 0.0028 for the first, 1.04 ± 0.017 for the second.

TGTGGCCAGG and TGGGGGAAGC are within error of each other in switch fluorescence ratio: 1.04 ± 0.056 for the first, 0.984 ± 0.026 for the second.

Compared with TTCCATCCAT, TTGAGAGGGG is lower in switch fluorescence ratio: 1.0067 ± 0.00069 for the first, 0.981 ± 0.021 for the second.

TGGGGGATCA and TCCAGAAGGC are within error of each other in switch fluorescence ratio: 0.978 ± 0.029 for the first, 1.09 ± 0.13 for the second.

CGGCGGCAG and TCTTTTGGGA are within error of each other in switch fluorescence ratio: 1.03 ± 0.064 for the first, 1.16 ± 0.29 for the second.

TTAAGATTTC and CATGAGGAGT are within error of each other in switch fluorescence ratio: 1.13 ± 0.14 for the first, 1.01 ± 0.0022 for the second.

GTTTTTATGT and CGGGAATGGC are within error of each other in switch fluorescence ratio: 0.973 ± 0.014 for the first, 1.06 ± 0.079 for the second.

Going from TTTCTGCAGC to AACACGGCTG, the switch fluorescence ratio falls from 1.24 ± 0.14 to 1.05 ± 0.027.

TATGGAGAGG and TACGAATCT are within error of each other in switch fluorescence ratio: 0.984 ± 0.015 for the first, 1.03 ± 0.056 for the second.

TCGTACATGA and GGTGGGGATG are within error of each other in switch fluorescence ratio: 1.013 ± 0.00015 for the first, 0.984 ± 0.027 for the second.

GATGTTAGTA and TTATTAATTT are within error of each other in switch fluorescence ratio: 0.973 ± 0.018 for the first, 1 ± 0.03 for the second.

TGATGGAAGT and GGCCTTGGCA are within error of each other in switch fluorescence ratio: 0.986 ± 0.031 for the first, 1.03 ± 0.015 for the second.

GCTGGTACTG and TTGCAGGTTT are within error of each other in switch fluorescence ratio: 0.986 ± 0.037 for the first, 1.11 ± 0.18 for the second.

First: CATTACCGAG
Second: AGGGAATAGA
The switch fluorescence ratio of the first is higher: 1.049 ± 0.0037 for the first, 0.989 ± 0.0094 for the second.

Going from TGTTTTGTGT to GCTTGACG, the switch fluorescence ratio falls from 1.035 ± 0.0073 to 1.004 ± 0.01.

AGGGTGATAC and CCTGTTCGCT are within error of each other in switch fluorescence ratio: 1.61 ± 0.62 for the first, 1.21 ± 0.014 for the second.

Compared with TGGGTGCACG, CACGTATCTC is higher in switch fluorescence ratio: 0.996 ± 0.057 for the first, 1.2 ± 0.05 for the second.

Going from AATGCTTCTC to AGTGATGTGT, the switch fluorescence ratio falls from 1.03 to 1 ± 0.017.

AGTAGTTATA and TATTAGTAAG are within error of each other in switch fluorescence ratio: 1.03 ± 0.093 for the first, 0.985 ± 0.034 for the second.

First: GCCGTAATGG
Second: GAGTTCGCGG
The switch fluorescence ratio of the first is higher: 1.24 ± 0.089 for the first, 1.034 ± 0.01 for the second.

TAAGCTTATG and GAAATAGGTA are within error of each other in switch fluorescence ratio: 0.9852 ± 0.0033 for the first, 0.988 ± 0.013 for the second.

CGAGCGGTTG and GAAGAGGGAT are within error of each other in switch fluorescence ratio: 0.999 ± 0.013 for the first, 0.981 ± 0.049 for the second.

First: TCCGAAGGAA
Second: CGTGGTGCGA
The switch fluorescence ratio of the first is higher: 1.11 ± 0.042 for the first, 1.02 ± 0.015 for the second.

TGGGGGTAAG and AATTACCGCG are within error of each other in switch fluorescence ratio: 0.989 ± 0.03 for the first, 1.03 ± 0.023 for the second.

AAATGACGGG and TAAAGGGCAC are the same in switch fluorescence ratio: 1.005 ± 0.0076 for the first, 1.011 ± 0.0093 for the second.

ATACTCTTAT and TTTGGGGAAT are within error of each other in switch fluorescence ratio: 1.03 ± 0.04 for the first, 1.02 ± 0.033 for the second.

GGGGTTCAAA and TAGATCGTTG are within error of each other in switch fluorescence ratio: 0.997 ± 0.016 for the first, 0.977 ± 0.04 for the second.

GTGGTAAAAG and ATGTCAGTGT are within error of each other in switch fluorescence ratio: 0.984 ± 0.013 for the first, 0.985 ± 0.074 for the second.

Compared with TCAAAATTTT, GGTAGGCGGG is lower in switch fluorescence ratio: 1.01 ± 0.012 for the first, 0.959 ± 0.018 for the second.

Going from TTTTATGACC to AATTTTTGCT, the switch fluorescence ratio falls from 1.008 ± 0.0066 to 0.966 ± 0.011.

GAAGGGTGCG and GGGAGGTATT are within error of each other in switch fluorescence ratio: 1.02 ± 0.034 for the first, 0.99676 ± 0.00098 for the second.

TTGTTGGGCT and GATGATGGGC are within error of each other in switch fluorescence ratio: 0.981 ± 0.039 for the first, 0.996 ± 0.035 for the second.

Compared with CGATCCAGTG, ATTTGAGCAG is lower in switch fluorescence ratio: 1.39 ± 0.061 for the first, 1.01 ± 0.011 for the second.

AGGAGGTAAA and GGAAGAAGAT are within error of each other in switch fluorescence ratio: 1.002 ± 0.0034 for the first, 0.982 ± 0.033 for the second.

GACTCAGGGG and TTTGATGGGT are within error of each other in switch fluorescence ratio: 1.39 ± 0.56 for the first, 0.993 ± 0.048 for the second.

Going from GAGCTTTGTT to TAACATGTGG, the switch fluorescence ratio rises from 0.984 ± 0.018 to 1.017 ± 0.01.

Compared with CGAAGTTATA, TTGTATGTTA is lower in switch fluorescence ratio: 1.19 ± 0.038 for the first, 1 ± 0.017 for the second.

CCTTTTTTAT and GTGTTAGGGC are within error of each other in switch fluorescence ratio: 1.03 ± 0.085 for the first, 0.9919 ± 0.0057 for the second.

GGTCCTAATA and AAATCGATGT are the same in switch fluorescence ratio: 1 ± 0.026 for the first, 1 ± 0.02 for the second.

GGCGAGAACG and GGGGCCGAGA are within error of each other in switch fluorescence ratio: 0.986 ± 0.018 for the first, 0.987 ± 0.012 for the second.

First: GAAATATCAT
Second: TGGGTGAGGG
The switch fluorescence ratio of the first is lower: 0.971 ± 0.018 for the first, 1 ± 0.0037 for the second.

GGTCCTGGCT and GGTTGGGACT are within error of each other in switch fluorescence ratio: 1.015 ± 0.01 for the first, 0.994 ± 0.028 for the second.

CGAGTGTGTG and CATGTTGTAT are within error of each other in switch fluorescence ratio: 0.97 ± 0.024 for the first, 0.98166 ± 0.00075 for the second.

AGAGGATATA and TTTCAGTATG are within error of each other in switch fluorescence ratio: 0.988 ± 0.043 for the first, 1.02 ± 0.023 for the second.

Compared with GGCGCAACAG, GATTCGCGGC is lower in switch fluorescence ratio: 1.44 ± 0.14 for the first, 1.16 ± 0.02 for the second.

TTTTCTTAGG and TAGGGTCGGG are within error of each other in switch fluorescence ratio: 1.08 ± 0.14 for the first, 0.9466 ± 0.0037 for the second.

TGGTTGACGA and TTTATTGATG are within error of each other in switch fluorescence ratio: 1.01 ± 0.14 for the first, 0.997 ± 0.016 for the second.

TCGGGGGCGT and TCGCGCCCTG are the same in switch fluorescence ratio: 1.03 ± 0.038 for the first, 1.03 ± 0.043 for the second.

TTGATTTTCA and GGTTGTTGTT are within error of each other in switch fluorescence ratio: 0.999 ± 0.015 for the first, 0.978 ± 0.029 for the second.

First: GTTTATCGGG
Second: TTCCGGGTAT
The switch fluorescence ratio of the first is lower: 0.964 ± 0.0099 for the first, 1.07 ± 0.03 for the second.

ACTCATTCTC and TTGGGAGGGA are within error of each other in switch fluorescence ratio: 1.04 ± 0.033 for the first, 1 ± 0.038 for the second.

ACCGGGCTTT and TTGGGGGCTT are within error of each other in switch fluorescence ratio: 0.988 ± 0.024 for the first, 1 ± 0.039 for the second.

ACCTGGTCGT and AGCTGTAGTA are within error of each other in switch fluorescence ratio: 1.05 ± 0.048 for the first, 1.01 ± 0.011 for the second.

GGGGTTCC and TGTAATGCCC are within error of each other in switch fluorescence ratio: 0.998 ± 0.0092 for the first, 0.991 ± 0.02 for the second.

GGGGTAGGCG and AAGAAGCAGA are within error of each other in switch fluorescence ratio: 0.959 ± 0.051 for the first, 1 ± 0.032 for the second.

Compared with GGGAGGGGTT, GAATGCTCAC is higher in switch fluorescence ratio: 1.01 ± 0.04 for the first, 1.14 ± 0.064 for the second.

TTGACTTTGA and TGCAGGGGGC are the same in switch fluorescence ratio: 1.02 ± 0.016 for the first, 1.02 ± 0.022 for the second.

GGATATGGGT was tested, and the switch fluorescence ratio was 0.966 ± 0.011.
